Measurements from US20250099635A1, “IIMMUNOCONJUGATES COMPRISING KALLIKREIN RELATED PEPTIDASE 2 ANTIGEN BINDING DOMAINS AND THEIR USES” (Janssen Biotech, Inc., priority 2022, published 2025).

B1: KL2B242 (Fab) (antibody, V domains shown)
VH: QVQLQESGPGLVKPSETLSLTCTVSGGSISSYYWSWLRQPAGSGLEWIGRLYVSGFTNYNPSLKSRVTLSLDPSRNQLSLKLSSVTAADTAVYYCAGDSGNYWGWFDPWGQGTLVTVSS
VL: SYELTQPPSVSVSPGETASITCSGDQLGENYACWYQQKPGQSPVLVIYQDSKRPSGIPERFSGSNSGNTATLTISGTQALDEADYYCQAWDNSIVVFGGGTKLTVL
B2: KL2B467 (Fab) (antibody, V domains shown)
VH: QVQLVESGGGVVQPGRSLRLSCAASGFTFSYYGMHWVRQAPGKGLEWVAFISYDGSNKYYADSVKGRFTISRDNSKNTLYLQMNSLRAEDTAVYYCAHLPYSGSYWAFDYWGQGTQVTVSS
VL: QSVLTQPPSVSVAPGQTASITCGGDNIGSKSVHWYQQKPGQAPVLVVYDNSDRPSGIPERFSGSNSGTTATLTISRVEAGDEADYYCQVWDSSSDHPVVFGGGTKVTV
B3: KL2B53 (Fab) (antibody, V domains shown)
VH: EVQLVESGGGVVQPGRSLRLSCVASGFTFSSYDIHWVRQAPGKGLEWVAIISYDGSKKDYTDSVKGRFTISRDNSKNTLYLQMDSLRVEDSAVYSCARESGWSHYYYYGMDVWGQGTMVTVSS
VL: DIVMTQSPSSLSASVGDRVTITCRASQDISNYLAWYQQKPGKVPKFLIYAASTLHSGVPSRFSGSGSGTDFTLTISSLQPEDVATYYCQKYNSAPYTFGQGTRLEIK

Test: Thermal stability (Tm) by Differential Scanning Fluorimetry (NanoDSF)
Type: physicochemical
Settings: 0.5 mg/mL in Phosphate Buffered Saline, pH 7.4
Protocol: Thermal stability was determined by Differential Scanning Fluorimetry (NanoDSF) using an automated Prometheus instrument. NanoDSF was used to measure Tm of molecules at a concentration of 0.5 mg/mL in Phosphate Buffered Saline, pH 7.4. Measurements were made by loading samples into 24 well capillary from a 384 well sample plate. Duplicate runs were performed for each sample. The thermal scans span from 20° C. to 95° C. at a rate of 1.0° C./minute. Intrinsic tryptophan and tyrosine fluorescence were monitored at the emission wavelengths of 330 nm and 350 nm, and the F350/F330 nm ratio were plotted against temperature to generate unfolding curves.

Tm (° C.), >70 °C:
B1, B2, B3
